Experimental findings from patent publication US20120064001A1 are described below.

Test [1] addresses recombinant Mouse VEGF164 (mouse) (UniProt Q00731). Nature of the test: SPR (Biacore T100); monomeric scFv over 1000 RU mouse VEGF164 on a CM5 chip; 1:1 fit.
Test [2] addresses PlGF. Nature of the test: indirect ELISA on coated growth factor; 2C3 at 1.0 ug/ml. Background: ELISA stands for enzyme-linked immunosorbent assay.
Test [3] addresses VEGF-B. Described as above.
The target in test [4] is VEGF-C. Described as above.
Test [5] addresses VEGF-D. Described as above.
Test [6] concerns the target human VEGF-A (human) (UniProt P15692). The description is as above.
Test [7] addresses mouse VEGF (isoform not given) (mouse) (UniProt Q00731). The test is described as above.
In test [8] the target is human VEGF-A (human) (UniProt P15692). Nature of the test: SPR (Biacore T100); IgG over 100 RU human VEGF-A on a CM5 chip; 1:1 fit; 25°C. For orientation: Surface plasmon resonance follows binding to a sensor surface in real time, without labels.
human VEGF-A (human), sequence (P15692 other isoform, or with tags, fused parts or gaps limits assumed): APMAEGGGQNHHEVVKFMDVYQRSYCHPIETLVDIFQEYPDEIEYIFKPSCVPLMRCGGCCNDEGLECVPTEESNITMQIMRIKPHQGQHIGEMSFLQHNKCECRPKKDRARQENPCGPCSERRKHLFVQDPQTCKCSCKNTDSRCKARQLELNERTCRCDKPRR
The target is the same in test [9]. Nature of the test: SPR (Biacore T100); IgG over 100 RU human VEGF-A on a CM5 chip; 1:1 fit; 37°C.

mouse VEGF (isoform not given) (mouse), sequence (Q00731 other isoform, or with tags, fused parts or gaps limits assumed): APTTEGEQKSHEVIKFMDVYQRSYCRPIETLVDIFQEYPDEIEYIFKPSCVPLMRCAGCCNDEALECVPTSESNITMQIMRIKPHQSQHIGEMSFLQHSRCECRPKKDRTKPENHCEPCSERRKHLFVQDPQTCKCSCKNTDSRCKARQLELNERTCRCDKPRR

Broadly, the Kd is the constant that tells how readily two partners part at equilibrium. For the substance EJ173/112-C11 (r84/PGN311) scFv, the dissociation constant (Kd) in [1] turned out to be 10 nM.
As to murine 2C3 anti-VEGF antibody (IgG), the mean absorbance (absorbance at 450 nM) in [2] was 0.1; in test [3], 0.09; in test [4], 0.09; in [5], 0.12; in test [6], 3.07; in test [7], 0.09. In addition, the Kd in test [8] turned out to be 12.4 nM; in [9], 313 nM.
